Test results from paper PMC8715544 (JACS Au, 2021).

Target: the molecule itself
Test: SEC

B1: Escherichia coli methionine adenosyltransferase eMAT (enzyme)
chain: MAKHLFTSESVSEGHPDKIADQISDAVLDAILEQDPKARVACETYVKTGMVLVGGEITTSAWVDIEEITRNTVREIGYVHSDMGFDANSCAVLSAIGKQSPDINQGVDRADPLEQGAGDQGLMFGYATNETDVLMPAPITYAHRLVQRQAEVRKNGTLPWLRPDAKSQVTFQYDDGKIVGIDAVVLSTQHSEEIDQKSLQEAVMEEIIKPILPAEWLTSATKFFINPTGRFVIGGPMGDCGLTGRKIIVDTYGGMARHGGGAFSGKDPSKVDRSAAYAARYVAKNIVAAGLADRCEIQVSYAIGVAEPTSIMVETFGTEKVPSEQLTLLVREFFDLRPYGLIQMLDLLHPIYKETAAYGHFGREHFPWEKTDKAQLLRDAAGLK
  stoichiometry N: 4
